“And” between values parts separate entries of the source, which are not always exact repeats. Equal values may be shown once. Where no end group is shown, it is not given here.

The source of these data is paper doi:10.1101/2021.11.19.469356 (bioRxiv, 2021).

In assay [1] the target is T1, MED25 ACID (residues Leu389-Asn543), recombinant (human, UniProt Q71SY5 389-543).
T1 sequence: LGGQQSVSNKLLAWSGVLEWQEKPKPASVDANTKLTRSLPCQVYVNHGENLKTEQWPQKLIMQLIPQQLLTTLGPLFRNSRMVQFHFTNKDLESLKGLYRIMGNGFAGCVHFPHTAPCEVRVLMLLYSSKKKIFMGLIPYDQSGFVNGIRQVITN
In words: pull-down.

The target in assay [2] is T1, MED25 ACID (residues Leu389-Asn543), …. In words: NMR titration.

B1: GST-ATF6αTAD (residues 1-150) (domain or fragment)
chain: MGEPAGVAGTMESPFSPGLFHRLDEDWDSALFAELGYFTDTDELQLEAANETYENNFDNLDFDLDLMPWESDIWDINNQICTVKDIKAEPQPLSPASSSYSVSSPRSVDSYSSTQHVPEELDLSSSSQMSPLSLYGENSNSLSSAEPLKE
As for B1, the binding result in assay [1] is recorded as “binds”.

B2: N-acetylated NS1 α3 peptide (RSV NS1 residues Ser118-Pro139) (peptide)
peptide: Ac-SDSTMTNYMNQLSELLGFDLNP
For B2, in assay [2], the dissociation constant Kd turned out to be 17 ± 8 µM; the “apparent Kd, second site of lower affinity (H1 face)” value is 200 µM and 1000 µM.

Usually Kd stands for a measure of binding affinity in units of concentration.
